# Source: paper PMC10457294
# “And” between values parts separate entries of the source, which are not always exact repeats. Identical values can stand only once.
# Tests used:
# [1] = molecular target: human B7.2 ectodomain fused to human Fc (human) (UniProt P42081); experiment: BLI; […] (10 ug/mL) […]; 10 mM HEPES pH 7.4, 150 mM NaCl, 3 mM EDTA, 0.05% Tween, 1% BSA; 25 °C; 1:1 model; […]
# [2] = molecular target: human B7.1 ectodomain fused to human Fc (human) (UniProt P33681); experiment: as above
# Chain of human B7.1 ectodomain fused to human Fc (human) (P33681 35-234): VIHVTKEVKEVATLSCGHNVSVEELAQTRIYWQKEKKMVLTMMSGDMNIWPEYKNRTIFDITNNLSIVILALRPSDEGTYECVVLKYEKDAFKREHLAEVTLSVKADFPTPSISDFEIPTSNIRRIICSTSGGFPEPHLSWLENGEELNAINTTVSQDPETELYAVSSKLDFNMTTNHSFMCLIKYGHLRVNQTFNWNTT
# [3] = molecular target: MPXV M2 (monkeypox virus M2 protein), His-tagged, wild type (monkeypox virus (Clade I)) (UniProt Q8V554); experiment: SEC-MALS
# [4] = molecular target: MPXV M2 (monkeypox virus M2 protein), His-tagged, wild type (monkeypox virus (Clade I)) (UniProt Q8V554); experiment: cryo-EM structure
# [5] = molecular target: human B7.2 ectodomain, His-tagged (human) (UniProt P42081); experiment: cryo-EM structure
# Chain of human B7.2 ectodomain, His-tagged (human) (P42081 26-238): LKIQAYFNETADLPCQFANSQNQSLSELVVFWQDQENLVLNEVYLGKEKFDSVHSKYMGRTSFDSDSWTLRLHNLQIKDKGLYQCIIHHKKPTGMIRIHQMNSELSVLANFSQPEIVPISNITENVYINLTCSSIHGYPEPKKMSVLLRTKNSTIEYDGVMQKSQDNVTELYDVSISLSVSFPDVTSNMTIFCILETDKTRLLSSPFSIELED
# [6] = molecular target: human B7.1 ectodomain, His-tagged (human) (UniProt P33681); experiment: cryo-EM structure
# Chain of human B7.1 ectodomain, His-tagged (human) (P33681 35-234): as the sequence (P33681 35-234) above
# Chain of human B7.2 ectodomain fused to human Fc (human) (P42081 26-238): as the sequence (P42081 26-238) above
substance,measurement,setting,value
"MPXV M2 (monkeypox virus M2 protein), His-tagged, wild type (from UniProt Q8V554 18-220) (natural protein)",t1/2 (dissociation half-life time),[1],19.7 h
same,t1/2 (dissociation half-life time),[2],6.62 h
same,stoichiometry N,[3],6.12
same,stoichiometry N,[4],6 and 7
same,stoichiometry N,[5],1
same,stoichiometry N,[6],1
